Experimental data as given in the nanobody polyreactivity screen of Harvey et al. (2022).

test: yeast display, Sf9 membrane polyspecificity reagent, FACS + sequencing; frameworks hold sequencing errors
In short: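 Genes from sorted yeast were amplified by colony PCR, read by MiSeq 2 × 250 sequencing and filtered on CDR length. These cells carried a synthetic nanobody library in Saccharomyces cerevisiae BJ5465 and were sorted by FACS into low and high (top ~1%) gates on anti-HA and streptavidin fluorescence. Polyreactivity is labelled according to the gate of origin.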

Row | Sequence | polyreactivity (PSR sort gate)
1 | QVQLVESGGGLVQAGGSLRLSCAASGFTSNYYAMGWYRQAPGKERELVAAITTGGSTHYADSVKGRFTISRDNAKNTVYLQMNSLKPEDTAVYYCAAGTNRQQQRYFHHGGYYQYNYWGQGTQVTVSS | low polyreactivity
2 | QVQLVESGGGLVQAGGSLRLSCAASGFTSSQYAMGWYRQAPGKERELVAAITSSGSSTYYADSVKGRFTISRDNAKNTVYLQMNSLKPEDTAVYYCNTDAYHRYPGSVWYYYWGQGTQVTVSS | high polyreactivity
3 | QVQLVESGGGLVQAGGSLRLSCAASGFTSWQYAMGWSIQAPGKERELVAAISVSGASTYYADSVKGRFTISRDNAKNTVYLQMNSLKPEDTAVYYCAAAYVRYPTTRYYYWGQGTQVTVSS | high polyreactivity
4 | QVQLVESGGGLVQAGGSLRLSCAASGFTVGYNAMGWYRQAPGKERELVAAIDKRGDSTYADSVKGRFTISRDNAKNTVYLQMNSLKPEDTAVYYCAADSDSKYNYGFLWDTYESWGQGTQVTVSS | low polyreactivity
5 | QVQLVESGGGLVQAGGSLRLSCAASGFTVTWYAMAWYRQAPGKERELVASISRSGGSTYYADSVKGRFTISRDNAKNTVSLQMISLKPEDSAVYYCAAVSRTRSYDYWRQGTQVTVSS | high polyreactivity
6 | QVQLVESGGGLVQAGGSLRLSCAASGFTVYKYVKGWYRQAPGKERELVAAITTSGGSTYYADSVKGRFTISRDNPKNTVYLQMNSLKPEDTAVYYCNARSLHTSEGDYWGQGTQVTVSS | low polyreactivity
7 | QVQLVESGGGLVQAGGSLRLSCAASGFTYGSNAMGWYRQAPGKERELVATISRRGGRTYYADSVKGRFTISRDNAKNTVYLQMNSLKPEDTAVYYCAADRSRPGYDYWGQGTQVTVSS | high polyreactivity
8 | QVQLVESGGGLVQAGGSLRLSCAASGFTYLYNAMGWYRQAPGKERELVASINSGGSTNYADSVKGRFTISRDNAKNSVYLQMNSLKPEDTAVYFCNAKRLVRKGDYWGQGTQVTVSS | low polyreactivity
9 | QVQLVESGGGLVQAGGSLRLSCAASGFTYRYYTMGLYRQAPGKERELVAAINTSGAGTYYADSVKGRFTISRDNAKNTVYLQMNSLKPEDTAVYYCAATWYGLDYNYWGQGTQVTVSS | high polyreactivity
10 | QVQLVESGGGLVQAGGSLRLSCAASGFTYYVNAMGWYRPAPGKERELDAAISSSGTRTYYADSVKGRFTISRDNAKNTVYLQMNSLKPEDTAVYYCAARGQAYSGDRMYYWGQGTQVTVSS | high polyreactivity
11 | QVQLVESGGGLVQAGGSLRLSCAASGFYFYSYAMGGYRQAPGKERELVAVISGSGGSTYYADSVKGRFTISRDNAKNTVYLQMNSLKPEDTAVYYCAARNQGNIYGYWGQGTQVTVSS | high polyreactivity
12 | QVQLVESGGGLVQAGGSLRLSCAASGFYGNAMGWYRQAPGKERELVAAITWSGGSTYYADSVKGRFTISRDNAKNTVYLQMNSLKPEDTAVYYCNKLQHRKYNGYDYWGQGTQVTVSS | high polyreactivity
13 | QVQLVESGGGLVQAGGSLRLSCAASGFYYGIGWYRQAPGTERELVAVITRGGSTNYADSVKGRFTISRDNAKNTVYLQMISLKPEDTAVYYCAARLYWAYRYGSWGQGSQVTVSS | high polyreactivity
14 | QVQLVESGGGLVQAGGSLRLSCAASGGIFAYNAMGWYRQAPGKERELVASISSGGNTYYADSVKGRFTISRDNAKNTVYLQMNSLKPEDTAVYYCNARFYRSWRRFSREPGYNYWGQGTQVTVSS | high polyreactivity
15 | QVQLVESGGGLVQAGGSLRLSCAASGGIFAYYAMGWYRQAPGKERELVAAITSRGGRTYYADSVKGRFTISRDNAKNTVYLQMNSLKPEDTAVYYCNAERFWPWDYDYWGQGTQVTVSS | high polyreactivity
16 | QVQLVESGGGLVQAGGSLRLSCAASGGIFDINAMGWYRQAPGKERELVAAITQSGGSTYYADSVKGRFTISRDNAKKTVYLQMNSLKPEDTAVYYCAKAVWYQGFDYWGQGTQVTVSS | high polyreactivity
